The target in the assay is recombinant human Mullerian Inhibiting Substance (human) (UniProt P03971). Nature of the assay: absorption of DG-MIS with IgG (1:3) and Protein A Sepharose, MIS in supernatant by ELISA; MIS alone 9.0 nM.

For the substance “normal rabbit IgG (Dako Corporation, Denmark Lot 108) (polyclonal serum or antibody)”, the MIS level left after absorption amounted to 8.8 nM.

(Values after US5661126.)
